Data taken from a protein production outcome set (Wang et al. 2014).

Assay: label from the status in PepcDB records

Sequence	protein production
MNSLQILSFVGFTLLVAVITWWKVRKTDTGSQQGYFLAGRSLKAPVIAASLMLTNLSTEQLVGLSGQAYKSGMSVMGWEVTSAVTLIFLALIFLPRYLKRGIATIPDFLEERYDKTTRIIIDFCFLIATGVCFLPIVLYSGALALNSLFHVGESLQISHGAAIWLLVILLGLAGILYAVIGGLRAMAVADSINGIGLVIGGLMVPVFGLIAMGKGSFMQGIEQLTTVHAEKLNSIGGPTDPLPIGAAFTGLILVNTFYWCTNQGIVQRTLASKSLAEGQKGALLTAVLKMLDPLVLVLPGLIAFHLYQDLPKADMAYPTLVNNVLPVPMVGFFGAVLFGAVISTFNGFLNSASTLFSMGIYRRIINQNAEPQQLVTVGRKFGFFIAIVSVLVAPWIANAPQGLYSWMKQLNGIYNVPLVTIIIMGFFFPRIPALAAKVAMGIGIISYITINYLVKFDFHFLYVLACTFCINVVVMLVIGFIKPRATPFTFKDAFAVDMKPWKNVKIASIGILFAMIGVYAGLAEFGGYGTRWLAMISYFIAAVVIVYLIFDSWRHRHDPAVTFTPDGKDSL	failed
MINRVPTNIITGFLGVGKTTAILHLLATKPAHEKWAVLVNEFGEIGIDGAIMSEQGAMIKEVPGGCLCCTAGVPMSVGINALLRQKPDRLIIEPTGLGHPKQVVATLISEQYQPYVDLKATIALMDPRHLSMDKYRSNQNFNDQLASADIVLGNKVDQCSSSDIDAFNDWVTDQTPAKTFSQLIKQGQFPIELLDMPRLVGHASTHIDSHHHHHAADEPQFQLAPQQPFLRKENRGQGYFSCGWLFGAEYQFNFDLLFQLLNDLTAERVKGVLNTDRGCYAFNVANGVVSVTEMSLDGFESRLEVIDSQLMPWSELESILLKIAGIPQALEHHHHHH	failed
MSIEVIAVRLTKGMDLKLSLAKLVAEHDIKAGSIASCVGCISDLNLRLAGAESTLTKREPFEIVSVMGTLTPEHQHVHISVSDREGRVWGGHLLEGTVIDTTAELIIHSYSELEFTRAMDDSTGYTELQVNPSKLEHHHHHH	not failed
SWSDLFRKCTTDEEQEMLQFLIDNKDSEILRAFVSERSILLHEEYLKWESYMTRRAKFHRLAADFAMFLSILTSLIVIFCLVYSMYQLFKTPDEHSAYDPSTRPKPKTQEVKTLKIRTE	not failed
MNKKKIKKLIKSALATTCAVSVITTTSVTAFASNSGENSKEEESNKRVEAEVYPVPQSLEHSSIEGMTLEGEVNIVYHGEQEAATSKRLERTLNENNIAFKVSENVEEGKANIIVSSEGDHCDVCSEGKEENSDVLTHKEGYVLKTSNDINEKGNISIIGSDKDGAYYGVLTLSQILEQSNEENKFAEVVVTDYPEIEFRGFIEGFYGVPWSHEDRMNLMKDTSEYKMNTYIYAPKDDPYHRLSWKELYPEQEAKQIAELAKAGAENNFNFCWTIHPGATLQFTDEDFDALINKFEQLYSLGVRQFGVLFDDTDDWRNGQKQAEWINKIDTEFVKAKGDVAPMIVISARYNSAWGPNMDRYFKPFMQTLHDDIQVMWTGHATMSNVSKEVFEWPKVQTGVDKDVAVWWNYPVNDYCDSRILMAPLHNLNQDLDNVSGFFSNPMNQAEASKVALYSIADYTWNTDAFDYMKSWETSIEKFVPEVKEEFMRFASNTCYLKDDGGASGPFEYDESWYLSEKIDALKEAMKNGQSAVKPAKDLLEEFKLIVSDYESITSKVTNKNLLGEIEQHLNAYKALGEAGIAAMEAIIASEEGNLELWMNSNSLAQEKLDLMETFKIESLESDGPKEYVVSVGTKLLKPLVKESMDYAKEKMGEVVLPKYDPEINTSLTNLKDVEVNFEDGIYSLRDLGEVTLNNGDYVGISLPKATKLRGINLLANNYDNIEIQYSINGLDWVTAKASTNENVLETLDVVDATFIRIINIGENSKNINLEKLEVLPVYKAEPTITENIGTHENYTIDKALDGNMDTKYWSNKPSDSGHNIQIDLGNVMPLYDINTYFGANDFMRNSEYMISEDGVNWTSLGALAYNSQDGKMVASANAEGKMARYIKIQSNGHNYGCWVEIYEIEFNKTAPEFDESAVNLASGTLEGNFNAFYDEDLSTAYEAKSVKDGDSLIYKMSRVTNISELEILQDKNRISEAKVSVKDLGGNWTEIGHLNAQINKLKVDNNITEVKFEFEGSKPAPKIYEIIAREREEQEEIVVSPVKEFKATTINKKNVTVSWEEPENTFGLESYILYKDGKKVSEISSDETSYTFKGLNRHTIYNFKIAAKYSNGEISKKESLTIRTAR	failed
MCLKNNAKDEIMDSTKAWYQSRTIWGALIAVFAPLFSIAGFDLPAGLHGELAEGLVTVAGGIGGLIALYGRLSATRSIR	failed
NDVFSDEVKKIDDNTFIVEGRMPLDDFNKMFHVELPARGVDTVAGFVLTLTGTIPEEDDKVVVEYDTLRFTVEEMNDARLVSVRVEKDI	failed
MGSSSYAVIPGAAPRSGRRSIRAVLVLALTAGVATVVPAAQADTSTPAAAPVAAKPYMGWSSWSMQSSKYPGLNPDGDYSYLTEANVLKQTDALASKLKKYGYDHVNIDAGWWMDKNWKTQFDQYGRQTPDPVRFPHGMKSVADHIHSKGLKAGIYLPVGLEKGAYGDGKTPISKAPGCTTADIVYSDLRTTNGWDNAYKIDFDKSCAQKYIDSQAQMFADWGYDFLKLDGVGPGSFKSGDNYNNVADVAAWQKAIAATGRPIHLELSWSLDIGHAADWKKYSNGWRIDTDIECYCNTLVTWENSVNDRWDDAPAWSSKAGPGGWNDLDAIDVGNGEMDGLTKAERQSYMTLWAINKSPLFTGDDLTKLDSYGVSLLTNKEVIAVDQNTSPVARPVTPVGDQQVWGTKNADGSYTVALFNLGDSPASVTAHWASFGFTGNASVRDLWNKTNLGTHKNKITEALPAHGSRLFTIKPGGGTLATTGYEAEAAANTLSGNASVGGCDACSGGKKVGNLYTGGKLRINDITVKKDGIYTVKVAYVSGDPRSVTVLSNSGNGTSLKFPSTGDWSTAETVSVQLALKAGSNTITFDSGSGYAPDIDRIVVPQSV	failed
MTISSRKAALAAVLLASVAVPAAAEPVFNRIASFPVAENLPGDKDKLSQTSAEIITATDDGNTLIYSDSPLGAIGFIDITDAKAPKSGGALMMDGEPTSVTSSAGKALVAVNTSESKARPSGRLAIVDVATKKIENTCDLGGQPDSIALNKDKTLGTIAIEDERDEDVNDGNIPQMPAGDLVVFRVKNGAVDCGSIKHVTLTDLAGVVPEDPEPEFVAFNGLNEIALTLQENNEIVIIDANTAEVKTHFSAGSVDLTGIDTKRDGALKFTGESKGVLREPDAVKWLDDNRLVVANEGDYHGGSRGFTIFDKTGKLLYESGASFERAVAHIGHYPESRSESKGVEPEGLEAAKFGDDQYFFLLAERASVVGVYKDTGADPELVQLLPSGISPEGGVAIPARNLFATANELDLGKDGGVRSHVMIYERSEGEKAYPQIVSAEKDGNPIGFAALSGLAAVPGKPGMLYAVSDSVLGSQPTIYTIDATKKPAVITDRLVVKRDGAPAQKLDIEGIAAAADGSFWLASEGYSERLVPHALYNVNAKGDIRAEIALPKELTANEIRFGFEGVTIIGTGDDATLWMAVQREWGDDEKGFVKLVSYNPKKKEWGAVRYPLDKTESGWVGLSEISAHGDSVYIIERDNLVGDAAKLKKLYKVAISELKPAKLGGELPVVKKTEAHDFLGELKTATNGYVLDKLEGFTFDASGKPYAVTDNDGVSDSSGETLFFPVELSATN	failed
KSAVTAQSILEKADEIRFPQDSFQVNVAIRTAAPDHAEDLYRYQVLSKGNENSIVMITEPASERGQAILMKGRDLWVFMPSVSQPIRLSLSQRLTGQVANGDIARANFTGDYHPQLLRNESIDDEDYYVLELTGIDRSVTYQKVLLWVNQSNFRPYKAEFYSVSGRLLKTSRYENFDNILGEMRPTRIIMEDALKSGEVSVLDYSDMKLRDLPDKIFTKDYLKRLE	not failed
EYGYEDLRESSNSLLNHQLSEIDQARLYSCLDHMREVLGDAVPDDILTEAILKHKFDVQKALSVVLEQDG	not failed
GFSHRSQQLLEQSVAKQLPLLERKYHQKNLEAAMVVTDIASGEIRALVGGRESGYAGFNRALNAKRHIGSLIKPAIYVAALERYQQYNFATILDDKAITLRNGTGKKWQPKNYDGKYRGQVSLIEGLVFSLNVPTINLGMSLGLDSVADAIKALGYQQKLKMRPSVLLGAVNMSPLEINQLYLAIANNGYYQKTHTITKILSSNNETLWQKQQSSEQRLSSNAAYLLDYALERVTQVGTARSLTWRLNNKKVAGKTGTSNALRDSWFIGYDSKHLITTWLGKDNNKPTGLTGSSGALPLFADFINKQGVINKVEAK	failed
MRVVVMGCGRVGASVADGLSRIGHEVAIIDRDSAAFNRLSPQFAGERVLGQGFDRDVLLRAGIQGADAFAAVSSGDNSNIISARLARETFGVPRVVARIYDAKRAEVYERLGIPTIATVPWTTDRLLNALMQDTETAKWRDPTGTVAVAEVVLHEDWVGHRATDLEQATGARIAFLIRFGTGVLPEPKTVLQAGDKVYIAAISGRAAEAAAIAALPPSEDFESGARR	failed
MVLYIILAIIVIILIAVGVLFYLRSNKRQIIEKAIERKNEIETLPFDQNLAQLSKLNLKGETKTKYDAMKKDNVESTNKYLAPVEEKIHNAEALLDKFSFNASQSEIDDANELMDSYEQSYQQQLEDVNEIIALYKDNDELYDKCKVDYREMKRDVLANRHQFGEAASLLETEIEKFEPRLEQYEVLKADGNYVQAHNHIAALNEQMKQLRSYMEEIPELIRETQKELPGQFQDLKYGCRDLKVEGYDLDHVKVDSTLQSLKTELSFVEPLISRLELEEANDKLANINDKLDDMYDLIEHEVKAKNDVEETKDIITDNLFKAKDMNYTLQTEIEYVRENYYINESDAQSVRQFENEIQSLISVYDDILKEMSKSAVRYSEVQDNLQYLEDHVTVINDKQEKLQNHLIQLREDEAEAEDNLLRVQSKKEEVYRRLLASNLTSVPERFIIMKNEIDHEVRDVNEQFSERPIHVKQLKDKVSKIVIQMNTFEDEANDVLVNAVYAEKLIQYGNRYRKDYSNVDKSLNEAERLFKNNRYKRAIEIAEQVLESVEPGVTKHIEEEVIKQ	failed
MVLVTSVRDYINRMLQDISGMKVLILDSETVSNVSIVYSQSELLQKEVFLVEMIDSISVSKESMSHLKAVYFIRPTSDNIQKLRYQLANPRFGEYHLFFSNLLKDTQIHILADSDEQEVVQQVQEYYADFVSGDPYHFTLNMASNHLYMIPAVVDPSGLQRFSDRVVDGIAAVFLALKRRPVIRYQRTSDTAKRIAHETAKLMYQHESALFDFRRTESSPLLLVIDRRDDPVTPLLNQWTYQAMVHELIGLQDNKVDLKSIGSLPKDQQVEVVLSSEQDAFFKSNMYENFGDIGMNIKRMVDDFQQVAKSNQNIQTVEDMARFVDNYPEYKKMQGNVSKHVTLVTEMSKLVEARKLMTVSQTEQDLACNGGQGAAYEAVTDLLNNESVSDIDRLRLVMLYALRYEKENPVQLMQLFNKLASRSPKYKPGLVQFLLKQAGVEKRTGDLFGNRDLLNIARNMARGLKGVENVYTQHQPLLFQTMESITRGRLRDVDYPFVGDHFQQGRPQEVVIFMVGGTTYEESRSVALQNATNSGVRFILGGTAVLNSKRFLKDLEEAQRISRSGSHMV	failed
MGQIQQPIQGYDSTSPCGDNRDPQPFDFNFIFAFQPIVNIKNGHIYAQEALVRGLKGEGAHSILSRIDENNRYSFDQKARDKALQSALSCNWDGAISINFMPNAVYYPEYCLSQTLSTCEKLGINPARLIFEWSEKEYLTEYDHIRHVISRYKHLNFKVAFDDFGGLYSNFNLLTAYHPDIIKLDRHYVVGIEHDKRRRAVVKAMVGLCRDLGIDFVVEGVETIEEFKVLQDLGVDLMQGFLLARPALMQMPQATMPP	failed
MKVLKPGLLTTVQDIGRTGYQKYGVLASGAMDTVSLRIANLLIGNGENEAGLEITMMGPGPSFHFSKQTLIAVTGADFTLRINDEEAPLWKPVLIKENSTVSFGPCKLGSRAYLAAAGGIEVPAVMESKSTYVRGSIGGLHGRALQKEDELNIGEMSALSQTILSRLSSQLAHTVIGSTDVVSQPWEISVIEDESRHSSAGGISICLLHSRIKNAFSEEAFRVTPQSDRMGYRLKGEPLDLTAPLEMVSAAVSFGAAQMPPAGKPYYPCLQDRQDDWPAIRGIAHIISADLPIVSQIMPGEHVQFEPVSLQEAEALAVEREQHIKELKTRMKMEWLT	not failed
